Laboratory results: the Immune Epitope Database (IEDB)
pIC50, pKd: −log10 of the molar value. One block for each sequence: values may come before it.

Columns and labels:
HLA-A*03:01 [1] = assay: IEDB peptide-MHC binding, purified MHC/competitive/fluorescence; filed as Kd, often an IC50 or EC50 that approximates it; ≥ and ≤ were set here for values at or beyond the usual limits of such assays; conditions: source organism: Yersinia pestis Nepal516
HLA-B*58:01 [2] = assay: as above
HLA-B*51:01 [3] = assay: IEDB peptide-MHC binding, purified MHC/competitive/fluorescence; ≥ and ≤ were set here for values at or beyond the usual limits of such assays; conditions: source organism: Mus musculus
HLA-C*03:03 = assay: IEDB peptide-MHC binding, purified MHC/direct/fluorescence; filed as Kd, often an IC50 or EC50 that approximates it; ≥ and ≤ were set here for values at or beyond the usual limits of such assays; conditions: source organism: Mus musculus
HLA-A*02:01 [4] = assay: as above
HLA-A*02:03 = assay: as above
HLA-A*02:11 = assay: as above
HLA-A*02:12 = assay: as above
HLA-A*02:16 = assay: as above
HLA-A*02:19 = assay: as above
HLA-A*03:01 [5] = assay: as above
HLA-A*26:01 [6] = assay: as above
HLA-A*68:02 = assay: as above
HLA-B*07:02 = assay: as above
HLA-B*15:01 [7] = assay: as above
HLA-B*18:01 [8] = assay: as above; conditions: source organism: Encephalitozoon cuniculi GB-M1
HLA-B*27:03 [9] = assay: as above; conditions: source organism: Encephalitozoon cuniculi GB-M1
HLA-B*35:01 = assay: as above
HLA-B*39:01 [10] = assay: as above; conditions: source organism: Encephalitozoon cuniculi GB-M1
HLA-B*46:01 [11] = assay: as above; conditions: source organism: Encephalitozoon cuniculi GB-M1
HLA-B*51:01 [12] = assay: as above; conditions: source organism: Encephalitozoon cuniculi GB-M1
HLA-B*57:01 = assay: as above; conditions: source organism: Encephalitozoon cuniculi GB-M1
HLA-A*01:01 = assay: as above; conditions: source organism: Escherichia coli O157:H7
HLA-A*11:01 = assay: as above; conditions: source organism: Escherichia coli O157:H7
HLA-A*24:03 = assay: as above
HLA-A*31:01 = assay: as above; conditions: source organism: Escherichia coli O157:H7
HLA-A*69:01 [13] = assay: as above; conditions: source organism: Escherichia coli O157:H7
HLA-B*08:01 = assay: as above; conditions: source organism: Escherichia coli O157:H7
HLA-B*27:05 = assay: as above; conditions: source organism: Escherichia coli O157:H7
HLA-B*40:01 = assay: as above; conditions: source organism: Escherichia coli O157:H7
HLA-B*44:02 = assay: as above; conditions: source organism: Escherichia coli O157:H7
HLA-B*58:01 [14] = assay: as above; conditions: source organism: Escherichia coli O157:H7
HLA-B*58:01 [15] = assay: IEDB peptide-MHC binding, purified MHC/competitive/fluorescence; ≥ and ≤ were set here for values at or beyond the usual limits of such assays; conditions: source organism: Homo sapiens
HLA-A*02:01 [16] = assay: IEDB peptide-MHC binding, purified MHC/competitive/fluorescence; filed as Kd, often an IC50 or EC50 that approximates it; ≥ and ≤ were set here for values at or beyond the usual limits of such assays
HLA-A*26:01 [17] = assay: as above
HLA-A*69:01 [18] = assay: as above
HLA-B*15:01 [19] = assay: as above; conditions: source organism: Orthohantavirus andesense
HLA-B*18:01 [20] = assay: as above
HLA-B*27:03 [21] = assay: as above
HLA-B*39:01 [22] = assay: as above
HLA-B*46:01 [23] = assay: as above
HLA-B*51:01 [24] = assay: as above; conditions: source organism: Orthohantavirus andesense
HLA-A*29:02 = assay: IEDB peptide-MHC binding, purified MHC/direct/fluorescence; filed as Kd, often an IC50 or EC50 that approximates it; ≥ and ≤ were set here for values at or beyond the usual limits of such assays; conditions: source organism: Ebola virus Yambio0403
[25] = source organism: Encephalitozoon cuniculi GB-M1
[26] = source organism: Escherichia coli O157:H7
[27] = source organism: Orthohantavirus puumalaense
[28] = source organism: Orthohantavirus andesense
[29] = source organism: Ebola virus Yambio0403
[30] = source organism: Zaire ebolavirus

Sequence: MTTSMTMSY
pKd (HLA-A*03:01 [1]): 6.52
pKd (HLA-B*58:01 [2]; source organism: Yersinia pestis Nepal516): 7.32

Sequence: QIQAGNFHW
pKd (HLA-A*02:03; [27]): ≤ 4.70
pKd (HLA-A*02:11; [27]): ≤ 4.70
pKd (HLA-A*02:12; [27]): ≤ 4.70
pKd (HLA-A*02:16; [27]): ≤ 4.70
pKd (HLA-A*02:19; [27]): ≤ 4.70
pKd (HLA-A*03:01 [5]; [27]): ≤ 4.70
pKd (HLA-A*68:02; [27]): ≤ 4.70
pKd (HLA-A*02:01 [16]; [28]): ≤ 4.70
pKd (HLA-A*26:01 [17]; [28]): ≤ 4.70
pKd (HLA-A*69:01 [18]; [28]): ≤ 4.70
pKd (HLA-B*15:01 [19]): ≤ 4.70
pKd (HLA-B*18:01 [20]; [28]): ≤ 4.70
pKd (HLA-B*27:03 [21]; [28]): ≤ 4.70
pKd (HLA-B*39:01 [22]; [28]): ≤ 4.70
pKd (HLA-B*46:01 [23]; [28]): ≤ 4.70
pKd (HLA-B*51:01 [24]): ≤ 4.70
pKd (HLA-B*58:01 [2]; [28]): 8.66

Sequence: ESLLHQASW
pKd (HLA-A*02:03; [29]): ≤ 4.70
pKd (HLA-A*02:11; [29]): ≤ 4.70
pKd (HLA-A*02:12; [29]): ≤ 4.70
pKd (HLA-A*02:16; [29]): ≤ 4.70
pKd (HLA-A*02:19; [29]): ≤ 4.70
pKd (HLA-A*03:01 [5]; [29]): ≤ 4.70
pKd (HLA-A*24:03; [29]): ≤ 4.70
pKd (HLA-A*29:02): ≤ 4.70
pKd (HLA-A*68:02; [29]): ≤ 4.70
pKd (HLA-B*15:01 [7]; [30]): ≤ 4.70
pKd (HLA-A*02:01 [16]; [30]): ≤ 4.70
pKd (HLA-A*26:01 [17]; [30]): ≤ 4.70
pKd (HLA-A*69:01 [18]; [30]): ≤ 4.70
pKd (HLA-B*18:01 [20]; [30]): ≤ 4.70
pKd (HLA-B*27:03 [21]; [30]): ≤ 4.70
pKd (HLA-B*39:01 [22]; [30]): ≤ 4.70
pKd (HLA-B*46:01 [23]; [30]): ≤ 4.70
pKd (HLA-B*58:01 [2]; [30]): 8.68

Further lines, results first:

pIC50 (HLA-B*51:01 [3]): 5.73
pKd (HLA-C*03:03): 8.70
Sequence: VALFSSCPV

pKd (HLA-A*02:01 [4]; [25]): ≤ 4.70
pKd (HLA-A*02:03; [25]): ≤ 4.70
pKd (HLA-A*02:11; [25]): ≤ 4.70
pKd (HLA-A*02:12; [25]): ≤ 4.70
pKd (HLA-A*02:16; [25]): ≤ 4.70
pKd (HLA-A*02:19; [25]): ≤ 4.70
pKd (HLA-A*03:01 [5]; [25]): ≤ 4.70
pKd (HLA-A*26:01 [6]; [25]): ≤ 4.70
pKd (HLA-A*68:02; [25]): ≤ 4.70
pKd (HLA-B*07:02; [25]): 5.35
pKd (HLA-B*15:01 [7]; [25]): ≤ 4.70
pKd (HLA-B*18:01 [8]): ≤ 4.70
pKd (HLA-B*27:03 [9]): ≤ 4.70
pKd (HLA-B*35:01; [25]): 8.70
pKd (HLA-B*39:01 [10]): ≤ 4.70
pKd (HLA-B*46:01 [11]): ≤ 4.70
pKd (HLA-B*51:01 [12]): ≤ 4.70
pKd (HLA-B*57:01): ≤ 4.70
Sequence: SPLPITLKY

pKd (HLA-A*01:01): ≤ 4.70
pKd (HLA-A*02:01 [4]; [26]): ≤ 4.70
pKd (HLA-A*03:01 [5]; [26]): ≤ 4.70
pKd (HLA-A*11:01): ≤ 4.70
pKd (HLA-A*24:03; [26]): ≤ 4.70
pKd (HLA-A*26:01 [6]; [26]): ≤ 4.70
pKd (HLA-A*31:01): ≤ 4.70
pKd (HLA-A*69:01 [13]): ≤ 4.70
pKd (HLA-B*07:02; [26]): 7.43
pKd (HLA-B*08:01): 5.37
pKd (HLA-B*15:01 [7]; [26]): ≤ 4.70
pKd (HLA-B*27:05): ≤ 4.70
pKd (HLA-B*35:01; [26]): 7.79
pKd (HLA-B*40:01): ≤ 4.70
pKd (HLA-B*44:02): ≤ 4.70
pKd (HLA-B*58:01 [14]): ≤ 4.70
Sequence: LPEFERRTL

pIC50 (HLA-B*58:01 [15]): ≤ 4.70
Sequence: QSSGSSSSGF
